Measured values: the supplement of paper PMC9112550, “Optimization of the antimicrobial peptide Bac7 by deep mutational scanning” (BMC Biology, 2022)

Each sequence was assayed on Escherichia coli TOP10 (assay: shrunken log2 fold change of peptide-encoding DNA abundance (4.5 h post-induction vs induction); higher = less antimicrobial activity (less host growth inhibition)). Conditions: time post-induction: 4.5 h; library: site-saturation at positions 5, 18, 19, 20.
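Note: peptides expressed intracellularly from a pBAD plasmid library in pooled LB shake-flask culture, induced with 0.3% L-arabinose, DNA abundance read by NGS, three biological replicates, DESeq2 with apeglm shrinkage.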

Row | Sequence | shrunken log2 fold change
1 | RRIRWRPPRLPRPRPRPLIQPRP | 0.279
2 | RRIRMRPPRLPRPRPRPVWDPRP | -0.136
3 | RRIRARPPRLPRPRPRPTGGPRP | 0.836
4 | RRIRDRPPRLPRPRPRPHLMPRP | -0.283
5 | RRIRKRPPRLPRPRPRPWFHPRP | -0.838
6 | RRIRIRPPRLPRPRPRPQICPRP | -0.0396
7 | RRIRTRPPRLPRPRPRPRMTPRP | 0.146
8 | RRIRMRPPRLPRPRPRPGDMPRP | 0.484
9 | RRIRHRPPRLPRPRPRPQPSPRP | 0.111
10 | RRIRVRPPRLPRPRPRPIGHPRP | -0.426
11 | RRIRCRPPRLPRPRPRPAYCPRP | -0.363
12 | RRIRTRPPRLPRPRPRPVIPPRP | -0.133
13 | RRIRYRPPRLPRPRPRPTCEPRP | 0.00952
14 | RRIRNRPPRLPRPRPRPANRPRP | -0.029
15 | RRIRMRPPRLPRPRPRPPAAPRP | 2.78
16 | RRIRYRPPRLPRPRPRPNNRPRP | -0.00509
17 | RRIRWRPPRLPRPRPRPNHTPRP | -0.323
18 | RRIRERPPRLPRPRPRPRMYPRP | -0.723
19 | RRIRWRPPRLPRPRPRPLEVPRP | -0.0802
20 | RRIRLRPPRLPRPRPRPAANPRP | 0.273
21 | RRIRRRPPRLPRPRPRPLHEPRP | -0.0162
22 | RRIRNRPPRLPRPRPRPAEQPRP | -0.018
23 | RRIRCRPPRLPRPRPRPASGPRP | 0.148
24 | RRIRIRPPRLPRPRPRPNVQPRP | -0.284
25 | RRIRPRPPRLPRPRPRPNHDPRP | -0.384

Row | Sequence | shrunken log2 fold change
26 | RRIRYRPPRLPRPRPRPSIGPRP | -0.0122
27 | RRIRNRPPRLPRPRPRPILVPRP | -0.0115
28 | RRIRERPPRLPRPRPRPQETPRP | 0.0209
29 | RRIRERPPRLPRPRPRPGDHPRP | -0.0518
30 | RRIRSRPPRLPRPRPRPDCAPRP | 0.187
31 | RRIRTRPPRLPRPRPRPQQHPRP | -0.37
32 | RRIRKRPPRLPRPRPRPCLGPRP | 0.0457
33 | RRIRMRPPRLPRPRPRPNMLPRP | -0.358
34 | RRIRKRPPRLPRPRPRPMLTPRP | 0.189
35 | RRIRPRPPRLPRPRPRPDIMPRP | -0.0454
36 | RRIRSRPPRLPRPRPRPDPDPRP | -0.0414
37 | RRIRWRPPRLPRPRPRPPMMPRP | 0.203
38 | RRIRNRPPRLPRPRPRPTGWPRP | 0.355
39 | RRIRWRPPRLPRPRPRPMCMPRP | 0.0952
40 | RRIRHRPPRLPRPRPRPQRCPRP | -0.00202
41 | RRIRFRPPRLPRPRPRPRLYPRP | -0.014
42 | RRIRDRPPRLPRPRPRPMRKPRP | 0.763
43 | RRIRRRPPRLPRPRPRPEPMPRP | 0.882
44 | RRIRNRPPRLPRPRPRPHQNPRP | -0.239
45 | RRIRNRPPRLPRPRPRPVDSPRP | -0.196
46 | RRIRTRPPRLPRPRPRPGCEPRP | -0.117
47 | RRIRMRPPRLPRPRPRPFYAPRP | -0.47
48 | RRIRGRPPRLPRPRPRPYCRPRP | -0.237
49 | RRIRQRPPRLPRPRPRPGRAPRP | 0.474
50 | RRIRSRPPRLPRPRPRPLWPPRP | 0.229

Row | Sequence | shrunken log2 fold change
51 | RRIRMRPPRLPRPRPRPRAAPRP | 3.2
52 | RRIRTRPPRLPRPRPRPLGCPRP | 0.0809
53 | RRIRMRPPRLPRPRPRPLDSPRP | 0.204
54 | RRIRMRPPRLPRPRPRPEWLPRP | 0.056
55 | RRIRPRPPRLPRPRPRPGNCPRP | -0.0898
56 | RRIRFRPPRLPRPRPRPLAMPRP | -0.0206
57 | RRIRKRPPRLPRPRPRPNWFPRP | 0.188
58 | RRIRGRPPRLPRPRPRPHENPRP | 0.446
59 | RRIRFRPPRLPRPRPRPMRNPRP | 0.92
60 | RRIRQRPPRLPRPRPRPYAWPRP | -0.0963
61 | RRIRYRPPRLPRPRPRPVSWPRP | 0.106
62 | RRIRHRPPRLPRPRPRPRTCPRP | -0.0538
63 | RRIRIRPPRLPRPRPRPLCNPRP | -0.807
64 | RRIRNRPPRLPRPRPRPHNEPRP | -0.509
65 | RRIRYRPPRLPRPRPRPKGQPRP | 0.0405
66 | RRIRKRPPRLPRPRPRPYEFPRP | 0.101
67 | RRIRQRPPRLPRPRPRPLAYPRP | -0.0738
68 | RRIRSRPPRLPRPRPRPEVRPRP | -0.109
69 | RRIRIRPPRLPRPRPRPICMPRP | -0.407
70 | RRIRHRPPRLPRPRPRPKTSPRP | -0.0692
71 | RRIRGRPPRLPRPRPRPGEQPRP | 1.23
72 | RRIRWRPPRLPRPRPRPPWMPRP | 0.371
73 | RRIRFRPPRLPRPRPRPSCYPRP | -0.839
74 | RRIRYRPPRLPRPRPRPFLEPRP | -0.775
75 | RRIRGRPPRLPRPRPRPLEIPRP | 0.428

Row | Sequence | shrunken log2 fold change
76 | RRIRRRPPRLPRPRPRPMQAPRP | 1.13
77 | RRIRQRPPRLPRPRPRPHMCPRP | -0.0238
78 | RRIRERPPRLPRPRPRPDEPPRP | -0.0946
79 | RRIRSRPPRLPRPRPRPPEWPRP | 0.263
80 | RRIRDRPPRLPRPRPRPKDMPRP | 0.0342
81 | RRIRPRPPRLPRPRPRPPRPPRP | 0.682
82 | RRIRTRPPRLPRPRPRPYDIPRP | -0.795
83 | RRIRMRPPRLPRPRPRPMVYPRP | 0.0294
84 | RRIRMRPPRLPRPRPRPGSHPRP | 0.0978
85 | RRIRGRPPRLPRPRPRPSYGPRP | -0.137
86 | RRIRYRPPRLPRPRPRPHMYPRP | -0.327
87 | RRIRVRPPRLPRPRPRPHVEPRP | 0.0127
88 | RRIRQRPPRLPRPRPRPRMTPRP | 0.388
89 | RRIRQRPPRLPRPRPRPLWRPRP | 3.25
90 | RRIRTRPPRLPRPRPRPQYIPRP | -0.331
91 | RRIRKRPPRLPRPRPRPSLNPRP | -0.0764
92 | RRIRRRPPRLPRPRPRPLAFPRP | 0.448
93 | RRIRRRPPRLPRPRPRPLYDPRP | -0.0854
94 | RRIRLRPPRLPRPRPRPIPRPRP | 0.0727
95 | RRIRCRPPRLPRPRPRPKYYPRP | 0.167
96 | RRIRMRPPRLPRPRPRPASKPRP | 0.0582
97 | RRIRTRPPRLPRPRPRPQTRPRP | 0.145
98 | RRIRGRPPRLPRPRPRPTEVPRP | 0.311
99 | RRIRCRPPRLPRPRPRPVAEPRP | 0.417
100 | RRIRFRPPRLPRPRPRPVHCPRP | -0.0193

Row | Sequence | shrunken log2 fold change
101 | RRIRYRPPRLPRPRPRPKYPPRP | -0.0165
102 | RRIRGRPPRLPRPRPRPIKIPRP | 0.302
103 | RRIRTRPPRLPRPRPRPNEKPRP | -0.144
104 | RRIRTRPPRLPRPRPRPPYNPRP | -0.252
105 | RRIRHRPPRLPRPRPRPYHMPRP | -0.0151
106 | RRIRMRPPRLPRPRPRPYDPPRP | -0.328
107 | RRIRKRPPRLPRPRPRPNCRPRP | 0.00408
108 | RRIRVRPPRLPRPRPRPWRTPRP | 0.0312
109 | RRIRCRPPRLPRPRPRPGDDPRP | 0.745
110 | RRIRHRPPRLPRPRPRPSPPPRP | -0.0717
111 | RRIRFRPPRLPRPRPRPRCFPRP | -0.183
112 | RRIRPRPPRLPRPRPRPFHIPRP | -0.161
113 | RRIRVRPPRLPRPRPRPFTFPRP | -0.0282
114 | RRIRLRPPRLPRPRPRPAPNPRP | 0.555
115 | RRIRKRPPRLPRPRPRPYILPRP | -0.0873
116 | RRIRLRPPRLPRPRPRPLRMPRP | 0.222
117 | RRIRVRPPRLPRPRPRPVVIPRP | -0.401
118 | RRIRYRPPRLPRPRPRPNCEPRP | -0.144
119 | RRIRNRPPRLPRPRPRPKYHPRP | -0.442
120 | RRIRCRPPRLPRPRPRPNWHPRP | -0.271
121 | RRIRVRPPRLPRPRPRPKGWPRP | 0.684
122 | RRIRHRPPRLPRPRPRPRSWPRP | 0.129
123 | RRIRWRPPRLPRPRPRPTTDPRP | 0.449
124 | RRIRNRPPRLPRPRPRPPGCPRP | 0.109
125 | RRIRGRPPRLPRPRPRPNHCPRP | -0.112

Row | Sequence | shrunken log2 fold change
126 | RRIRLRPPRLPRPRPRPITSPRP | 0.0662
127 | RRIRARPPRLPRPRPRPLFDPRP | 0.28
128 | RRIRTRPPRLPRPRPRPYGQPRP | -0.107
129 | RRIRVRPPRLPRPRPRPKTRPRP | 0.63
130 | RRIRDRPPRLPRPRPRPLFFPRP | 0.648
131 | RRIRCRPPRLPRPRPRPEHDPRP | -0.131
132 | RRIRKRPPRLPRPRPRPHFNPRP | -0.0789
133 | RRIRPRPPRLPRPRPRPFRYPRP | -0.0865
134 | RRIRPRPPRLPRPRPRPCHYPRP | -0.146
135 | RRIRSRPPRLPRPRPRPEVTPRP | 0.501
136 | RRIRYRPPRLPRPRPRPLEQPRP | -0.121
137 | RRIRTRPPRLPRPRPRPSPPPRP | -0.0898
138 | RRIRRRPPRLPRPRPRPRPRPRP | 0.86
139 | RRIRTRPPRLPRPRPRPHNMPRP | -0.651
140 | RRIRERPPRLPRPRPRPLSLPRP | -0.371
141 | RRIRYRPPRLPRPRPRPWYVPRP | -1.13
142 | RRIRQRPPRLPRPRPRPKNYPRP | -0.216
143 | RRIRPRPPRLPRPRPRPVHYPRP | -0.121
144 | RRIRFRPPRLPRPRPRPMSLPRP | -0.142
145 | RRIRPRPPRLPRPRPRPMKQPRP | 0.036
146 | RRIRARPPRLPRPRPRPKYAPRP | 0.354
147 | RRIRNRPPRLPRPRPRPPPNPRP | 1.04
148 | RRIRDRPPRLPRPRPRPKQNPRP | 0.277
149 | RRIRWRPPRLPRPRPRPVFIPRP | -0.22
150 | RRIRKRPPRLPRPRPRPVFLPRP | -0.0387
